Experimental data taken from the supplement of paper PMC10567573.
± gives the standard deviation.

Test: protein stability index of a GFP-peptide fusion (GPS, HEK-293T) (PSI 1-6); higher = more stable
[1] = treatment: DMSO, c terminus: a fixed tail appended
[2] = treatment: MLN4924 1 uM, 8 h, c terminus: a fixed tail appended
[3] = treatment: DMSO, c terminus: native
[4] = treatment: MLN4924 1 uM, 8 h, c terminus: native
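Note: 24-mer peptide tiles fused after GFP, lentivirally expressed, FACS-sorted into six equal bins by GFP/DsRed ratio, decoded by Illumina sequencing, PSI is the read-weighted mean bin number.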

Sequence: KAQGHGAKGDNVYEFHLEFLDLVK [HACD3]
- protein stability index [1]: 2.37 ± 0.2
- protein stability index [2]: 2.46 ± 0.14

Sequence: QDKPYKCTDCGKSFNHNAHLTVHK [ZNF8]
- protein stability index [1]: 3.71 ± 0.27
- protein stability index [2]: 3.72 ± 0.41

Sequence: MPDEPVEAPALPAPAAPMVSKGAE [BRD3]
- protein stability index [1]: 5.17 ± 0.37
- protein stability index [2]: 5.37 ± 0.3

Sequence: GGLNTETNEKALEAVFGKYGRIVE [RBMX]
- protein stability index [1]: 3.59 ± 0.26
- protein stability index [2]: 3.22 ± 0.47

Sequence: KELEDMNQKLFDLRGKFKRPPLRR [TNNI2]
- protein stability index [1]: 3.86 ± 0.19
- protein stability index [2]: 4.1 ± 0.42

Sequence: LTILAKRKSLFDDKAVEIEELTYI [STX5]
- protein stability index [1]: 2.2 ± 0.35
- protein stability index [2]: 2.22 ± 0.49

Sequence: TYLVSERLEREERNQTQVLRQQQD [FAF2]
- protein stability index [1]: 4.97 ± 0.21
- protein stability index [2]: 4.89 ± 0.072

Sequence: LEADELCDDGGDGRGAVVPGAGLR [ZBTB22]
- protein stability index [1]: 5.18 ± 0.27
- protein stability index [2]: 5.26 ± 0.17

Sequence: STPVRREVTDKEQEFAARAAKQLE [EPB41L3]
- protein stability index [1]: 5.28 ± 0.2
- protein stability index [2]: 5.27 ± 0.21

Sequence: FLQNAKTLLKKISEASKAFQMEKI [TRIM55]
- protein stability index [1]: 3 ± 0.65
- protein stability index [2]: 2.77 ± 0.42

Sequence: ESLKEELLSLKQNHEQEVNTLRCQ [KRT33B]
- protein stability index [1]: 4.91 ± 0.099
- protein stability index [2]: 4.78 ± 0.24

Sequence: VLQDGCVFEKAGVSISVVHGNLSE [CPOX]
- protein stability index [1]: 3.21 ± 0.32
- protein stability index [2]: 3.05 ± 0.53

Sequence: LRKQLQPTHCKYEGPRKARRLWFA
- protein stability index [1]: 2.43 ± 0.089
- protein stability index [2]: 2.07 ± 0.25

Sequence: CVTLVWRMPDEDSKIDHYVLEYRR [FSD1]
- protein stability index [1]: 2.29 ± 0.43
- protein stability index [2]: 1.93 ± 0.3

Sequence: LDLMPRLMTSKPAEVVKILQTMLR [INTS4]
- protein stability index [1]: 2.23 ± 0.16
- protein stability index [2]: 2.13 ± 0.15

Sequence: LRNFNSAKDMKKAVAHMKYMGKGS [MATN2]
- protein stability index [1]: 3.05 ± 0.37
- protein stability index [2]: 3.43 ± 0.46

Sequence: QDGVLDLSTKKSPCAGSTSLSHSP [LCOR]
- protein stability index [1]: 4.95 ± 0.14
- protein stability index [2]: 4.96 ± 0.2

Sequence: IRCRHPPPGSHLLYAKMIQKLADL [VDR]
- protein stability index [1]: 2.37 ± 0.33
- protein stability index [2]: 2.23 ± 0.13

Sequence: EIKDKDQLVLRTKEAFDTIQEQKV [SASS6]
- protein stability index [1]: 4.54 ± 0.25
- protein stability index [2]: 4.53 ± 0.46

Sequence: HDGHLYLGSFRSPFLCRLSLQAV [APMAP]
- protein stability index [3]: 2.82 ± 0.33
- protein stability index [4]: 3.31 ± 0.55

Sequence: GSTMLIEAAKGGHTSVVCYLLDYP [ANKRD17]
- protein stability index [1]: 2.59 ± 0.38
- protein stability index [2]: 2.55 ± 0.56

Sequence: KVLHEDKQTREQLHSISDSVLFLQ [TRIM29]
- protein stability index [1]: 3.46 ± 0.16
- protein stability index [2]: 3.58 ± 0.27

Sequence: REEMKLKECVSILPRKESPSVRSS [TNFSF13B]
- protein stability index [1]: 4.61 ± 0.14
- protein stability index [2]: 4.73 ± 0.2

Sequence: PSAGFRCCAAPGPHVALAVRYNRV [ANKRD9]
- protein stability index [1]: 2.37 ± 0.28
- protein stability index [2]: 2.21 ± 0.34

Sequence: QESKNQVHRRGEYNVYSTFQSHEP [PPP2R2B]
- protein stability index [1]: 3.72 ± 0.38
- protein stability index [2]: 4.2 ± 0.22

Sequence: RCLHASQWPVCAACPVRKFWSVG [BRF1]
- protein stability index [3]: 2.4 ± 0.14
- protein stability index [4]: 2.17 ± 0.34

Sequence: GTTPQISPSTLIGSLRTLELGSES [HDAC6]
- protein stability index [1]: 4.52 ± 0.27

Sequence: FIENNVSKLSLLLNDISRKSEGLS [TRIP13]
- protein stability index [1]: 2.39 ± 0.35
- protein stability index [2]: 2.33 ± 0.26

Sequence: RGSIQSRYISMSVWTSPRRLVELA [PRAME]
- protein stability index [1]: 2.52 ± 0.24
- protein stability index [2]: 2.71 ± 0.3

Sequence: NTLAPTCFKAKLHRKRGSQPPDMA [RSPH3]
- protein stability index [1]: 3.83 ± 0.12
- protein stability index [2]: 3.87 ± 0.25

Sequence: GQRGAQGAGRRRRAGGPPRPMSEP [SMAD6]
- protein stability index [1]: 4.96 ± 0.21
- protein stability index [2]: 5.08 ± 0.42

Sequence: EPEKLYAMPDPAGPDGHLPAVATL [ESRRA]
- protein stability index [1]: 4.65 ± 0.27
- protein stability index [2]: 4.69 ± 0.23

Sequence: KMNFIKTYPAHQNRVSAIIFSLAT [WDFY1]
- protein stability index [1]: 2.65 ± 0.51
- protein stability index [2]: 2.5 ± 0.37

Sequence: QNTHLTRHQRTHTGEKPYQCNICG [ZNF263]
- protein stability index [1]: 4.01 ± 0.27
- protein stability index [2]: 4.19 ± 0.32

Sequence: KQGYILNSDQTTCRIQDLCAMEDH [MATN2]
- protein stability index [1]: 3.35 ± 0.27
- protein stability index [2]: 3.17 ± 0.39

Sequence: RFRFGQDQLLLATGLNNGRIKIWD [WSB1]
- protein stability index [1]: 2.25 ± 0.33
- protein stability index [2]: 2.5 ± 0.32

Sequence: KNFSNNSNLIRHQRIHAAERLCMG [ZNF263]
- protein stability index [1]: 2.86 ± 0.73
- protein stability index [2]: 2.73 ± 0.35

Sequence: QPWMVIEGIRQTEYTLTGLKFDMK [FSD1]
- protein stability index [1]: 2.29 ± 0.35
- protein stability index [2]: 2.52 ± 0.49

Sequence: TEQAVALLRDRTGQQSDTAQLELY [SCARA5]
- protein stability index [1]: 4.61 ± 0.16
- protein stability index [2]: 4.42 ± 0.25

Sequence: DQGDEGKEGRPGIPGLPGLRGLPG [SCARA5]
- protein stability index [1]: 5 ± 0.13
- protein stability index [2]: 4.93 ± 0.29

Sequence: GVAGGLNRNQGLNRLMLAVRDMMA [TCF25]
- protein stability index [1]: 3.12 ± 0.38
- protein stability index [2]: 3.02 ± 0.36

Sequence: LNPQLVQPAKKPLLWSDPADNKIV [ESRRG]
- protein stability index [1]: 3.78 ± 0.23
- protein stability index [2]: 3.83 ± 0.047

Sequence: SYPMRRSYRYKLLNWAYQQVQQNK [STEAP1]
- protein stability index [1]: 2.34 ± 0.19
- protein stability index [2]: 2.36 ± 0.25

Sequence: LAAAHGHSEVVEELVSADVIDLFD [RIPK4]
- protein stability index [1]: 4.08 ± 0.37
- protein stability index [2]: 4.5 ± 0.46

Sequence: ASGQSYSSREVFTSSSSSSSRQTR [KRT16]
- protein stability index [1]: 4.84 ± 0.15
- protein stability index [2]: 4.8 ± 0.21

Sequence: TQIPADEDTQTDADSSAQAAAQAP [TAF7L]
- protein stability index [1]: 5.49 ± 0.072
- protein stability index [2]: 5.51 ± 0.15

Sequence: VGGFDGTTYLKTIEVFDPDANTWR [KLHL20]
- protein stability index [1]: 2.91 ± 0.12
- protein stability index [2]: 2.92 ± 0.32

Sequence: VKQEIAEMRIPALNAYMKSLLSLP [NCF4]
- protein stability index [1]: 2.27 ± 0.34
- protein stability index [2]: 2.36 ± 0.28

Sequence: LTTSQERELGIRQRDEQLRALQER [FBF1]
- protein stability index [1]: 5.02 ± 0.38
- protein stability index [2]: 5.24 ± 0.29

Sequence: AAFYKGYVPNMLGIIPYAGIDLAV [SLC25A25]
- protein stability index [1]: 2.78 ± 0.45
- protein stability index [2]: 3.31 ± 0.57

Sequence: DDEDEEEEDADCYDDDDSGNEES [UBE2R2]
- protein stability index [3]: 5.57 ± 0.33
- protein stability index [4]: 5.57 ± 0.084

Sequence: GMDFHRFYFENALSKSNKPIHTII [CAMK2D]
- protein stability index [1]: 2.94 ± 1.8
- protein stability index [2]: 2.06 ± 1.1

Sequence: VDREKGLSAEPGWQAKREEEEEEE [CHGA]
- protein stability index [1]: 5.36 ± 0.48
- protein stability index [2]: 5.7 ± 0.18

Sequence: PELKSLAKTFHLVNPNGQKQQLVD [FAN1]
- protein stability index [1]: 4.05 ± 0.07
- protein stability index [2]: 4.2 ± 0.22

Sequence: MDDSTEREQSRLTSCLKKREEMKL [TNFSF13B]
- protein stability index [1]: 5.04 ± 0.19
- protein stability index [2]: 5.16 ± 0.11

Sequence: QDSKEMKQLLDSKIGFEIGIENEE [ZNF449]
- protein stability index [1]: 5.35 ± 0.37
- protein stability index [2]: 5.37 ± 0.47

Sequence: LAEALLHPFFAGLTPEERSFHTSR [CLK3]
- protein stability index [1]: 2.29 ± 0.2
- protein stability index [2]: 2.21 ± 0.23

Sequence: SRGSRRRRRQRSEKKKAHYRQSSF [KCNA4]
- protein stability index [1]: 4.6 ± 0.29
- protein stability index [2]: 4.8 ± 0.17

Sequence: WDQVSRLHEVLTEVVPIHGRGNFP [TENT5C]
- protein stability index [1]: 2.59 ± 0.28
- protein stability index [2]: 2.67 ± 0.17

Sequence: MPKNSKVTQREHSSEHVTESVADL [SLC6A17]
- protein stability index [1]: 5.4 ± 0.14
- protein stability index [2]: 5.45 ± 0.085

Sequence: RGNTYALQTGPLLGRPDSLELQRQ [RSPH3]
- protein stability index [1]: 3.87 ± 0.15
- protein stability index [2]: 3.9 ± 0.26

Sequence: TGMPMMPQQPVMFAQPMMRPPFGA [SNAP91]
- protein stability index [1]: 2.97 ± 0.064
- protein stability index [2]: 2.67 ± 0.33

Sequence: GAYDFPSPEWDTVTPEAKNLINQM [CAMK2B]
- protein stability index [1]: 3.76 ± 0.25
- protein stability index [2]: 3.85 ± 0.25

Sequence: AERLTATGILLHPWLRQDPMPLAP [TRIB3]
- protein stability index [1]: 2.78 ± 0.22
- protein stability index [2]: 2.91 ± 0.18

Sequence: LRQLTAELAEHRCHPVERGIKSKE [PSD2]
- protein stability index [1]: 3.99 ± 0.26
- protein stability index [2]: 4.2 ± 0.043

Sequence: SGGGGSSSNFHINVEESVDGQVVS [KRT15]
- protein stability index [1]: 5.26 ± 0.1
- protein stability index [2]: 5.21 ± 0.26

Sequence: FSHTLVSLSLFGCTNIFYEEENPG [ZER1]
- protein stability index [1]: 2.65 ± 0.12
- protein stability index [2]: 2.29 ± 0.029

Sequence: NLHSLALDFCDFTAEMARVLTDSN [FBXO33]
- protein stability index [1]: 1.84 ± 0.25
- protein stability index [2]: 2.49 ± 0.61

Sequence: VSMEIFFKAWLHNSGTDQEQIHLL [M1AP]
- protein stability index [1]: 2.41 ± 0.52
- protein stability index [2]: 2.21 ± 0.27

Sequence: HHWDHARGNPELARLRPGLAVLGA [HAGHL]
- protein stability index [1]: 3.1 ± 0.34
- protein stability index [2]: 3.08 ± 0.45

Sequence: VAAGRTQKAGVTRSGRLILWEAPP [NEK8]
- protein stability index [1]: 2.85 ± 0.24
- protein stability index [2]: 2.94 ± 0.24

Sequence: AGGHPAQLGLGRGASTFKEEPQTV [JUNB]
- protein stability index [1]: 4.511 ± 0.035
- protein stability index [2]: 4.58 ± 0.32
